Target: Vsg-GFP fusion protein (D. melanogaster Vsg, transiently expressed in U2OS cells) (Drosophila melanogaster)
Experiment: immunostaining of cells or tissue

Substance: TcdA1 (TcA subunit of the Photorhabdus luminescens Tc toxin pTc) (from UniProt Q9RN43 1-2516) (natural protein)
- percent of TcdA1-bound cells that are GFP positive: 96%
